This is an account of results in patent US20230322879A1.

The target of the test is CC-chemokine receptor type 7 (CCR7) (UniProt P32248). The test is described as follows: cell-based or functional assay.
Sequence of UniProt P32248 (P32248 25-378 limits assumed): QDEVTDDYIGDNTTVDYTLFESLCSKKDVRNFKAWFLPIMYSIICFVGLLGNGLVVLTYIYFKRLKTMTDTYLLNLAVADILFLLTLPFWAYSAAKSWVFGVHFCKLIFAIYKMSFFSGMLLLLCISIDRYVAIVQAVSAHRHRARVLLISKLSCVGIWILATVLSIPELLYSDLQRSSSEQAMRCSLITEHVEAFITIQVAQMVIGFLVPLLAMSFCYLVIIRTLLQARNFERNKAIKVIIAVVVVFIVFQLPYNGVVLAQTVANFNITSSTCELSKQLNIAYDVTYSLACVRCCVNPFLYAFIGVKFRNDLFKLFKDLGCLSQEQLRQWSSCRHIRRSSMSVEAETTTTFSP

Regarding “commercial CCL21 antigen (from UniProt O00585 24-134) (ligand)”, the Cells in the well of absorbent material (chemotaxis of PBMCs, agarose assay) is 170 cells; the Chemotaxis percentage (PBMCs, agarose assay) is 90%; the Chemotaxis rate (PBMCs, agarose assay) turned out to be 153 cells; the cancer cell migration after 72 hours, wound healing assay is 90%. The same substance showed a survival of MCF7 cancer cells, MTT assay, 7.5 µg/ml of 33%.
